Laboratory results taken from patent publication US20190225669A1 (ACCELERON PHARMA, published 2019).
Read-outs that look alike come from different tables or passages of the source.

Columns and labels:
BMP6 [1] = biological target: T1, BMP6 (UniProt P22004 382-513, limits assumed); experiment: Biacore SPR
T1 sequence (looked up): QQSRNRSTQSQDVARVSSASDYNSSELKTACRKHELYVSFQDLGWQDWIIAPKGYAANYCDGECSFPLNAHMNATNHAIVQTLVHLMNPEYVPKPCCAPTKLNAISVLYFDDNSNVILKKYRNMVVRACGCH
Method: (§1) Ligands were injected and allowed to flow over the captured receptor protein.

BMP5 [2] = biological target: T2, BMP5 (UniProt P22003 317-454, limits assumed); experiment: Biacore SPR
T2 sequence (looked up): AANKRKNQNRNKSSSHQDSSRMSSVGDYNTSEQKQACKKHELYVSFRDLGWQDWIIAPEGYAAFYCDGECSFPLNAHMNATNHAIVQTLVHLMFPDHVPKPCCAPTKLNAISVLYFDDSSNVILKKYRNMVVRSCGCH
Method: as §1

BMP6 [3] = biological target: T1, BMP6; experiment: Biacore SPR; remark: listed apart in the source
Method: as §1

BMP7 [4] = biological target: T3, BMP7 (UniProt P18075 293-431); experiment: Biacore SPR
T3 sequence (looked up): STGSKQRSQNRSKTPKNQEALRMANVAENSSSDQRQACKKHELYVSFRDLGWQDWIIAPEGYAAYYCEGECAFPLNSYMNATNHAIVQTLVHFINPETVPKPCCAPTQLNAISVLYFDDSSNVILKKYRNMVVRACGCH
Method: as §1

BMP5 [5] = biological target: T2, BMP5; experiment: Biacore SPR; remark: listed apart in the source
Method: as §1

BMP6 [6] = biological target: T1, BMP6; experiment: Biacore SPR; remark: listed apart in the source
Method: as §1

BMP5 [7] = biological target: T2, BMP5; experiment: Biacore SPR; remark: listed apart in the source
Method: as §1

BMP7 [8] = biological target: T3, BMP7; experiment: Biacore SPR; remark: listed apart in the source
Method: as §1

GDF5 [9] = biological target: T4, GDF5 (UniProt P43026 382-501); experiment: Biacore SPR
T4 construct: also called BMP14
T4 sequence (looked up): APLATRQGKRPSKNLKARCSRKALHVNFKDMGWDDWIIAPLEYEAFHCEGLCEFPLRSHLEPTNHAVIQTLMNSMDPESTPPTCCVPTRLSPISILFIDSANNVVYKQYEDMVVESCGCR
Method: as §1

GDF6 = biological target: T5, GDF6 (UniProt Q6KF10 336-455, limits assumed); experiment: Biacore SPR
T5 construct: also called BMP13
T5 sequence (looked up): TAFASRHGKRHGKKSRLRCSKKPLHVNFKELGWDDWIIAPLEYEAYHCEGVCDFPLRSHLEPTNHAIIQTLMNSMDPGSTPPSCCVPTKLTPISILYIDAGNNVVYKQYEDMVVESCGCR
Method: as §1

BMP6 [10] = biological target: T1, BMP6; experiment: Biacore SPR; remark: listed apart in the source
Method: as §1

GDF5 [11] = biological target: T4, GDF5; experiment: Biacore SPR; kinetics indeterminate (transient)
Method: as §1

GDF7 = biological target: T6, GDF7 (UniProt Q7Z4P5 322-450, limits assumed); experiment: Biacore SPR; kinetics indeterminate (transient)
T6 construct: also called BMP12
T6 sequence (looked up): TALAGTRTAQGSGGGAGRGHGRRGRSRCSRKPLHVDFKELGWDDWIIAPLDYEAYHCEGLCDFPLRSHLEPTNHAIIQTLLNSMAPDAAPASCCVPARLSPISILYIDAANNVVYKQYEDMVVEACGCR
Method: as §1

BMP9 = biological target: T7, BMP9 (UniProt Q9UK05 320-429); experiment: Biacore SPR
T7 construct: also called GDF2
T7 sequence (looked up): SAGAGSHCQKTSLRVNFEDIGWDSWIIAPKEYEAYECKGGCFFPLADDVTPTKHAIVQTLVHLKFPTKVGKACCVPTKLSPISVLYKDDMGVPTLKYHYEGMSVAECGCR

BMP10 = biological target: T8, BMP10 (UniProt O95393 317-424); experiment: Biacore SPR
T8 sequence (looked up): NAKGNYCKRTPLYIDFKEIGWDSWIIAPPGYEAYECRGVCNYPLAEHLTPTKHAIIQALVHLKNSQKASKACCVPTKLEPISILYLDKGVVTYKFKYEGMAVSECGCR

TGFβ1 [12] = biological target: T9, TGFβ1 (human, UniProt P01137 279-390); experiment: cell-based or functional assay
TGFβ2 [13] = biological target: T10, TGFβ2 (human, UniProt P61812 303-414); experiment: cell-based or functional assay
T10 sequence (looked up): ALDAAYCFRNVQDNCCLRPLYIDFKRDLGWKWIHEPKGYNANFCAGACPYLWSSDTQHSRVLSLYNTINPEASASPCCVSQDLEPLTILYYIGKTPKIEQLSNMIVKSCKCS

TGFβ3 [14] = biological target: T11, TGFβ3 (human, UniProt P10600 301-412); experiment: cell-based or functional assay
T11 sequence (looked up): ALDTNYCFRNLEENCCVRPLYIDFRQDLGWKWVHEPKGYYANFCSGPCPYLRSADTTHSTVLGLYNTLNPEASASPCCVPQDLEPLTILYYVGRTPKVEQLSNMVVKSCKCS

TGFβ1 [15] = biological target: T9, TGFβ1; experiment: Biacore SPR; * low signal
Method: (§2) The heteromeric or homomeric protein complexes were independently captured onto the system using an anti-Fc antibody. Ligands were injected and allowed to flow over the captured receptor protein.

TGFβ2 [16] = biological target: T10, TGFβ2; experiment: Biacore SPR; * low signal
Method: as §2

TGFβ3 [17] = biological target: T11, TGFβ3; experiment: Biacore SPR; * low signal
Method: as §2

TGFβ2 [18] = biological target: T10, TGFβ2; experiment: Biacore SPR

T9 sequence (P01137 279-390 limits assumed): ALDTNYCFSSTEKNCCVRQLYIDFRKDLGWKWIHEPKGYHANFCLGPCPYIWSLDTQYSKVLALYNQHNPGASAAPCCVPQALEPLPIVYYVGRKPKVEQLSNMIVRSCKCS

B1: ActRIIB-Fc homodimer (Fc fusion, UniProt Q13705 19-137, looked up, not shown: a dimerising Fc or GST)
chain: SGRGEAETRECIYYNANWELERTNQSGLERCEGEQDKRLHCYASWRNSSGTIELVKKGCWLDDFNCYDRQECVATEENPQVYFCCCEGNFCNERFTHLPEAGGPEVTYEPPPTAPTLLT
notes: extracellular domain; also called ActRIIB homodimer
Kd (BMP6 [1]): 0.19 nM
koff (BMP6 [1]): 0.0068 s⁻¹
kon (BMP6 [1]): 3.2e+07 M⁻¹ s⁻¹
Kd (BMP5 [2]): 2.9 nM
koff (BMP5 [2]): 0.075 s⁻¹
kon (BMP5 [2]): 2.6e+07 M⁻¹ s⁻¹
Kd (BMP6 [3]): 0.19 nM
koff (BMP6 [3]): 0.0068 s⁻¹
kon (BMP6 [3]): 3.5e+07 M⁻¹ s⁻¹
Kd (BMP7 [4]): 1.6 nM
koff (BMP7 [4]): 0.014 s⁻¹
kon (BMP7 [4]): 8.8e+06 M⁻¹ s⁻¹
Kd (BMP5 [5]): 2.9 nM
koff (BMP5 [5]): 0.075 s⁻¹
kon (BMP5 [5]): 2.6e+07 M⁻¹ s⁻¹
Kd (BMP6 [6]): 0.16 nM
koff (BMP6 [6]): 0.0039 s⁻¹
kon (BMP6 [6]): 2.4e+07 M⁻¹ s⁻¹
Kd (BMP5 [7]): 9.7 nM
koff (BMP5 [7]): 0.037 s⁻¹
kon (BMP5 [7]): 3.8e+06 M⁻¹ s⁻¹
Kd (BMP7 [8]): 1.6 nM
koff (BMP7 [8]): 0.014 s⁻¹
kon (BMP7 [8]): 8.8e+06 M⁻¹ s⁻¹
Kd (GDF5 [9]): 1.1 nM
koff (GDF5 [9]): 0.0014 s⁻¹
kon (GDF5 [9]): 1.2e+06 M⁻¹ s⁻¹
Kd (GDF6): 39 nM
koff (GDF6): 0.0057 s⁻¹
kon (GDF6): 150000 M⁻¹ s⁻¹
Kd (BMP6 [10]): 1.1 nM
koff (BMP6 [10]): 0.007 s⁻¹
kon (BMP6 [10]): 6.4e+06 M⁻¹ s⁻¹
Kd (GDF5 [11]): > 9.6 nM
Kd (GDF7): > 12 nM

B2: TGFβRIISHORT-Fc:ALK5-Fc heterodimer (Fc fusion)
chain 1: TIPPHVQKSVNNDMIVTDNNGAVKFPQLCKFCDVRFSTCDNQKSCMSNCSITSICEKPQEVCVAVWRKNDENITLETVCHDPKLPYHDFILEDAASPKCIMKEKKKPGETFFMCSCSSDECNDNIIFSEEYNTSNPDTGGGTHTCPPCPAPELLGGPSVFLFPPKPKDTLMISRTPEVTCVVVDVSHEDPEVKFNWYVDGVEVHNAKTKPREEQYNSTYRVVSVLTVLHQDWLNGKEYKCKVSNKALPAPIEKTISKAKGQPREPQVYTLPPSRKEMTKNQVSLTCLVKGFYPSDIAVEWESNGQPENNYKTTPPVLKSDGSFFLYSKLTVDKSRWQQGNVFSCSVMHEALHNHYTQKSLSLSPGK
chain 2: ALLPGATALQCFCHLCTKDNFTCVTDGLCFVSVTETTDKVIHNSMCIAEIDLIPRDRPFVCAPSSKTGSVTTTYCCNQDHCNKIELPTTVKSSPGLGPVETGGGTHTCPPCPAPELLGGPSVFLFPPKPKDTLMISRTPEVTCVVVDVSHEDPEVKFNWYVDGVEVHNAKTKPREEQYNSTYRVVSVLTVLHQDWLNGKEYKCKVSNKALPAPIEKTISKAKGQPREPQVYTLPPSREEMTKNQVSLTCLVKGFYPSDIAVEWESNGQPENNYDTTPPVLDSDGSFFLYSDLTVDKSRWQQGNVFSCSVMHEALHNHYTQKSLSLSPG
notes: also called TGFβRIISHORT:ALK5-Fc Heterodimer; TGFβRII-Fc:ALK5-Fc heterodimer (short isoform)
binding result (BMP9): no binding
binding result (BMP10): no binding
IC50 (pM), CAGA12-luciferase reporter gene assay in A549 cells, TGFβ1 at 640 pg/mL (TGFβ1 [12]): < 350 pM
IC50 (pM), CAGA12-luciferase reporter gene assay in A549 cells, TGFβ2 at 480 pg/mL (TGFβ2 [13]): ~200 pM
IC50 (pM), CAGA12-luciferase reporter gene assay in A549 cells, TGFβ3 at 270 pg/mL (TGFβ3 [14]): < 90 pM
Kd (TGFβ1 [15]): 0.012 nM
koff (TGFβ1 [15]): 0.0017 s⁻¹
kon (TGFβ1 [15]): 1.4e+08 M⁻¹ s⁻¹
Kd (TGFβ2 [16]): 0.4 pM
koff (TGFβ2 [16]): 2.9e-06 s⁻¹
kon (TGFβ2 [16]): 6.6e+06 M⁻¹ s⁻¹
Kd (TGFβ3 [17]): 0.038 nM
koff (TGFβ3 [17]): 0.001 s⁻¹
kon (TGFβ3 [17]): 2.7e+07 M⁻¹ s⁻¹

B3: TGFβRIILONG-Fc:ALK5-Fc heterodimer (Fc fusion)
chain 1: TIPPHVQKSDVEMEAQKDEIICPSCNRTAHPLRHINNDMIVTDNNGAVKFPQLCKFCDVRFSTCDNQKSCMSNCSITSICEKPQEVCVAVWRKNDENITLETVCHDPKLPYHDFILEDAASPKCIMKEKKKPGETFFMCSCSSDECNDNIIFSEEYNTSNPDTGGGTHTCPPCPAPELLGGPSVFLFPPKPKDTLMISRTPEVTCVVVDVSHEDPEVKFNWYVDGVEVHNAKTKPREEQYNSTYRVVSVLTVLHQDWLNGKEYKCKVSNKALPAPIEKTISKAKGQPREPQVYTLPPSRKEMTKNQVSLTCLVKGFYPSDIAVEWESNGQPENNYKTTPPVLKSDGSFFLYSKLTVDKSRWQQGNVFSCSVMHEALHNHYTQKSLSLSPGK
chain 2: B2 chain 2
notes: also called TGFβRII-Fc:ALK5-Fc heterodimer (long isoform)
binding result (BMP9): no binding
binding result (BMP10): no binding
affinity ratio against TGFβRII-Fc homodimer (TGFβ2 [18]): ~100000 fold
off-rate ratio against TGFβRII-Fc homodimer (TGFβ2 [18]): ~10000 fold
IC50 (pM), CAGA12-luciferase reporter gene assay in A549 cells, TGFβ1 at 640 pg/mL (TGFβ1 [12]): 204 pM
IC50 (pM), CAGA12-luciferase reporter gene assay in A549 cells, TGFβ2 at 480 pg/mL (TGFβ2 [13]): 154 pM
IC50 (pM), CAGA12-luciferase reporter gene assay in A549 cells, TGFβ3 at 270 pg/mL (TGFβ3 [14]): 35 pM
Kd (TGFβ1 [15]): 0.014 nM
koff (TGFβ1 [15]): 0.00092 s⁻¹
kon (TGFβ1 [15]): 6.6e+07 M⁻¹ s⁻¹
Kd (TGFβ2 [16]): 0.07 pM
koff (TGFβ2 [16]): 2.8e-07 s⁻¹
kon (TGFβ2 [16]): 4.2e+06 M⁻¹ s⁻¹
Kd (TGFβ3 [17]): 0.038 nM
koff (TGFβ3 [17]): 0.001 s⁻¹
kon (TGFβ3 [17]): 2.7e+07 M⁻¹ s⁻¹
